Measurements published in paper PMC6456427.
Like-named read-outs stand apart in the source and are kept apart here.

Experiments:
Assay in all cases: SEC
[1] = target: Actinobacillus ureae class Id ribonucleotide reductase α subunit (Actinobacillus ureae)
[2] = target: Actinobacillus ureae class Id ribonucleotide reductase α subunit (Actinobacillus ureae); remark: listed apart in the source
[3] = target: Flavobacterium johnsoniae class Id ribonucleotide reductase α subunit (Flavobacterium johnsoniae)

Substance | stoichiometry N [1] | stoichiometry N [2] | stoichiometry N [3]
Actinobacillus ureae class Id ribonucleotide reductase α subunit (enzyme) | 2 | 2 | –
Flavobacterium johnsoniae class Id ribonucleotide reductase α subunit (enzyme) | – | – | 2
